In patent US9393309B2, “Self-gelatinizable nucleic acid” (Kyoto University, priority 2011, dated 2016):

Key:
Type in all cases: physicochemical
[1] = Formation of hydrogel from nucleic acid units without ligase; conditions: for gel formation singly or on mixing: final DNA concentration 2 mM, NaCl 150 mM; for gel formation: without DNA ligase
Procedure: A NaCl solution was added to an ODN solution (polypodna) such that the final Na^+ concentration was 5 to 150 mM. The gel formation and the gel strength were measured by a gel strength analyzer (gel strength meter, Nakayamadenki Co., Ltd, Osaka).
A structure to be a hydrogel (a nucleic acid monomer and an estimated nucleic acid unit) in conditions at room temperature, at 5 mM to 150 mM sodium chloride concentration (150 mM is substantially physiological concentration), and not containing a DNA ligase was elucidated. […] For convenience, nucleic acid units estimated to be formed according to the number of nucleic acid monomers capable of constituting the nucleic acid unit were represented by xxxpodna (xxxpod-like structure forming nucleic acid, xxx is substituted by tri (3), tetra (4) and the like, according to the number of nucleic acid monomers capable of constituting the nucleic acid unit). In Table 2 described below, xxxpodna is an estimated nucleic acid unit, and each of xxx-Y-N is a nucleic acid monomer that can be a constituent element of the nucleic acid unit (xxxpodna) which is mentioned above thereof. When the descriptions of Ys are different from each other, different nucleic acid units can be formed. N denotes numbering of nucleic acid monomers constituting each of the estimated nucleic acid units.
Unlike (1-1) described above, gelation can be controlled by using a nucleic acid monomer including cohesive protruding ends which are not attached to themselves (that is, not palindrome sequence).

[2] = Percentage of remaining gels with the passage of time
Procedure: Gels were formed by adjusting the NaCl concentration at 150 mM in an aqueous solution containing Tetrapodna (12-14-14) (SEQ ID NOs.: 30, 31, 32 and 33) at a DNA concentration of 0.1 mM, 0.25 mM or 0.5 mM, and the percentage of the remaining gels was measured with the passage of time. The results are shown in a graph in the left upper side of FIG. 17.
Gels were formed in conditions at a certain DNA concentration (0.5 mM) and a certain NaCl concentration (150 mM), and the percentage of the remaining gels was measured with the passage of time by using Tetrapodna (respectively, SEQ ID NOs.: 2, 4, 5 and 6, SEQ ID NOs.: 18, 19, 20 and 21, SEQ ID NOs.: 22, 23, 24 and 25, SEQ ID NOs.: 26, 27, 28 and 29, as well as SEQ ID NOs.: 30, 31, 32 and 33) having various lengths of the cohesive protruding end (4, 6, 8, 10 or 12 bases). The results are shown in a graph in the left lower side of FIG. 17. […] When 12 hours had passed, the percentage of the remaining gels became about 50%.
Gels were formed by variously changing the NaCl concentrations (5 mM, 50 mM, 100 mM or 150 mM) of an aqueous solution containing Tetrapodna (12-14-14) (SEQ ID NOs.: 30, 31, 32 and 33) at a DNA concentration of 0.5 mM, and the percentage of the remaining gels was measured with the passage of time. The results are shown in a graph in the right upper side of FIG. 17. […] At a low salt concentration (5 mM), almost all the formed gels became in a sol state when about 6 hours had passed. When the salt concentration was increased to 50 mM, solation tendency was weakened, a change from a gel into a sol occurred moderately (about 40% when 12 hours had passed).
The percentage of the remaining gels was measured with the passage of time in the same manner as in (8-3) except that Tetrapodna (4-18-18) (SEQ ID NOs.: 2, 4, 5 and 6) was used instead of Tetrapodna (12-14-14) (SEQ ID NOs.: 30, 31, 32 and 33). The results are shown in a graph in the right lower side of FIG. 17. […] In (8-3), Tetrapodna (12-14-14) (the length of the cohesive protruding end is 12 bases) was used. In (8-4), Tetrapodna (4-18-18) (the length of the cohesive protruding end is 4 bases) was used.

[3] = Evaluation of gelation at various DNA concentrations and NaCl concentrations; design: key: ◯: the mark “∘” is given to cases in which gelation was observed; X: the mark “x” is given to cases of a solution state (sol-state)
Procedure: […] The gel formation and the gel strength were measured by a gel strength analyzer (gel strength meter, Nakayamadenki Co., Ltd, Osaka).
Specifically, by changing the DNA concentrations of an aqueous solution of Tripodona (4-18-18) (X=4) (SEQ ID NOs.: 1, 2 and 3), Tetrapodna (4-18-18) (X=4) (SEQ ID NOs.: 2, 4, 5 and 6), Hexapodna (4-18-18) (X=4) (SEQ ID NOs.: 2, 3, 4, 7, 9 and 10) and Tetrapodna (8-16-16) (X=8) (SEQ ID NOs.: 22, 23, 24 and 25) as shown in the lines of Table 4, and by changing the NaCl concentration as shown in the rows of Table 4, whether or not a gel is formed at various DNA concentrations and NaCl concentrations was evaluated. The results are shown such that the mark “∘” is given to cases in which gelation was observed, and the mark “x” is given to cases of a solution state (sol-state).

dsDNA (12-14): double strand DNA, SEQ ID NOs.: 42 and 43, 12-base ends complementary to Tetrapodna (A) (chain 1 GACTGACTCTGAACGTCAGCGTTA; chain 2 GACTGACTCTGATAACGCTGACGT; DNA, all phosphodiester, methylation of C not given here)
gel formation singly or on mixing [1]: did not form a gel singly

B1: Tetrapodna (10-15-15): four ODNs, SEQ ID NOs.: 26, 27, 28 and 29, 10-base cohesive protruding end (nucleic acid)
DNA 1: ACGTTAACGTTGCACGACATCAGCGTCTGACGCTCGTCGA
DNA 2: ACGTTAACGTTCGACGAGCGTCAGATCTCGCAACGCTGCA
DNA 3: ACGTTAACGTTGCAGCGTTGCGAGACAGACGCTTGACGCA
DNA 4: ACGTTAACGTTGCGTCAAGCGTCTGCGCTGATGTCGTGCA
modifications: DNA, all phosphodiester, methylation of C not given here
initial percentage of gels ([2]; DNA 0.5 mM, NaCl 150 mM): about 100% | percentage of the remaining gels with the passage of time ([2]; DNA 0.5 mM, NaCl 150 mM): decreased with the passage of time only slightly | gel formation [1]: gels can be prepared

B2: Tetrapodna (6-17-17): four ODNs, SEQ ID NOs.: 18, 19, 20 and 21, 6-base cohesive protruding end (nucleic acid)
DNA 1: AACGTTTACGCACGACATCAGCGTCTGGACGCTTCGTCGA
DNA 2: AACGTTTCGACGAAGCGTCCAGATCTCGTCAACGCTGCGA
DNA 3: AACGTTTCGCAGCGTTGACGAGACAGACGCTGTGACGCTA
DNA 4: AACGTTTAGCGTCACAGCGTCTGCGCTGATGTCGTGCGTA
modifications: unmodified DNA
initial percentage of gels ([2]; DNA 0.5 mM, NaCl 150 mM): about 100% | percentage of the remaining gels with the passage of time ([2]; DNA 0.5 mM, NaCl 150 mM): decreased with the passage of time only slightly | gel formation [1]: gels can be prepared

B3: Tetrapodna (B): SEQ ID NOs.: 38, 39, 40 and 41, 12-base end complementary to Tetrapodna (A) (nucleic acid)
DNA 1: GACTGACTCTGATGCACGACATCACGTTGACGCTCGTCGA
DNA 2: GACTGACTCTGATCGACGAGCGTCAATCTCGCAACGTGCA
DNA 3: GACTGACTCTGATGCACGTTGCGAGACAGACGCTTGACGA
DNA 4: GACTGACTCTGATCGTCAAGCGTCTGCGTGATGTCGTGCA
modifications: DNA, all phosphodiester, methylation of C not given here
gel formation singly or on mixing [1]: did not form a gel singly

B4: Tripodna(4-18-18): nucleic acid unit of three ODNs, SEQ ID NOs.: 1, 2 and 3, 4-base palindrome cohesive protruding end, CpG (nucleic acid)
DNA 1: ACGTTCGTCAACGTCTGTGCTCTCACGTTGACGCTGTCGA
DNA 2: ACGTTCGACAGCGTCAACGTGAAACGTGAAGCGTCTGCGA
DNA 3: ACGTTCGCAGACGCTTCACGTTGAGCACAGACGTTGACGA
modifications: unmodified DNA
gel formation [1]: gels can be prepared | gelation ([3]; Na+ 2 mM, DNA 1.2 mM): X | gelation ([3]; Na+ 2 mM, DNA 1.4 mM): ◯ | gelation ([3]; Na+ 10 mM, DNA 1.2 mM): ◯ | gelation ([3]; Na+ 20 mM, DNA 1.0 mM): X | gelation ([3]; Na+ 50 mM, DNA 0.7 mM): X | gelation ([3]; Na+ 50 mM, DNA 0.8 mM): X | gelation ([3]; Na+ 50 mM, DNA 0.9 mM): X | gelation ([3]; Na+ 50 mM, DNA 1.0 mM): ◯ | gelation ([3]; Na+ 100 mM, DNA 0.7 mM): ◯ | gelation ([3]; Na+ 100 mM, DNA 0.8 mM): ◯ | gelation ([3]; Na+ 100 mM, DNA 0.9 mM): ◯ | gelation ([3]; Na+ 150 mM, DNA 0.6 mM): X

B5: Pentapodna (4-18-18): five ODNs, SEQ ID NOs.: 2, 3, 4, 7 and 8, 4-base cohesive protruding end (nucleic acid)
DNA 1: B4 DNA 2
DNA 2: B4 DNA 3
DNA 3: ACGTTCGCTGACGTTGCAGACATCACGTTGACGCTGTCGA
DNA 4: ACGTTCGTCAACGTCTGTGCTCGCAGCGTCTTAACGTCGA
DNA 5: ACGTTCGACGTTAAGACGCTGCTGTCTGCAACGTCAGCGA
modifications: unmodified DNA
gel formation [1]: gels can be prepared

B6: Tetrapodna (12-14-14): four ODNs, SEQ ID NOs.: 30, 31, 32 and 33, 12-base palindrome cohesive protruding end (nucleic acid)
DNA 1: ACGTCATGACGTTGCACGACATCACGTTGACGCTCGTCGA
DNA 2: ACGTCATGACGTTCGACGAGCGTCAATCTCGCAACGTGCA
DNA 3: ACGTCATGACGTTGCACGTTGCGAGACAGACGCTTGACGA
DNA 4: ACGTCATGACGTTCGTCAAGCGTCTGCGTGATGTCGTGCA
modifications: DNA, all phosphodiester, methylation of C not given here
gel formation (percentage of gels) ([2]; DNA 0.1 mM, NaCl 150 mM): about 25% | percentage of the remaining gels with the passage of time ([2]; DNA 0.25 mM, NaCl 150 mM): the initial percentage of gels was increased, but the percentage of the remaining gels was decreased with the passage of time | time until almost all the formed gels became in a sol state ([2]; DNA 0.5 mM, NaCl 5 mM): about 6 hours | change from a gel into a sol ([2]; DNA 0.5 mM, NaCl 50 mM, 12 hours): about 40% | initial percentage of gels ([2]; DNA 0.5 mM, NaCl 100 mM): about 100% | percentage of the remaining gels with the passage of time ([2]; DNA 0.5 mM, NaCl 100 mM): decreased with the passage of time only slightly | initial percentage of gels ([2]; DNA 0.5 mM, NaCl 150 mM): about 100% | percentage of the remaining gels with the passage of time ([2]; DNA 0.5 mM, NaCl 150 mM): decreased with the passage of time only slightly | gel formation [1]: gels can be prepared

B7: Tetrapodna (A): SEQ ID NOs.: 34, 35, 36 and 37, 12-base non-palindrome cohesive protruding end (nucleic acid)
DNA 1: TCAGAGTCAGTCTGCACGACATCACGTTGACGCTCGTCGA
DNA 2: TCAGAGTCAGTCTCGACGAGCGTCAATCTCGCAACGTGCA
DNA 3: TCAGAGTCAGTCTGCACGTTGCGAGACAGACGCTTGACGA
DNA 4: TCAGAGTCAGTCTCGTCAAGCGTCTGCGTGATGTCGTGCA
modifications: DNA, all phosphodiester, methylation of C not given here
gel formation singly or on mixing [1]: did not form a gel singly
